Changes are numbered by the printed parent chain. Names may count otherwise.
B1: Proteolytic fragment of CD27L (C-terminal domain released by autocleavage at M186) (domain or fragment, bacteriophage ΦCD27, UniProt B6SBV8 186-270, looked up)
chain: MYKHTIVYDGEVDKISATVVGWGYNDGKILICDIKDYVPGQTQNLYVVGGGACEKISSITKEKFIMIKGNDRFDTLYKALDFINR
notes: CD27L endolysin of bacteriophage ΦCD27, autoproteolytic C-terminal fragment; N-terminal residue identified as M186 by LC-MS; the protein ends at 270 by the construct name CD27L180-270; About 10 kDa; The N-terminal His tag of the parent stays on the catalytic domain; also called CD27L proteolytic fragment; C-terminal domain of CD27L; source: autoproteolytic product of full-length CD27L made in E. …
B2: CD27L endolysin C238R mutant, full length (enzyme, bacteriophage ΦCD27, UniProt B6SBV8 1-270, looked up)
chain: MKICITVGHSILKSGACTSADGVVNEYQYNKSLAPVLADTFRKEGHKVDVIICPEKQFKTKNEEKSYKIPRVNSGGYDLLIELHLNASNGQGKGSEVLYYSNKGLEYATRICDKLGTVFKNRGAKLDKRLYILNSSKPTAVLIESFFCDNKEDYDKAKKLGHEGIAKLIVEGVLNKNINNEGVKQMYKHTIVYDGEVDKISATVVGWGYNDGKILICDIKDYVPGQTQNLYVVGGGAREKISSITKEKFIMIKGNDRFDTLYKALDFINR
notes: CD27L endolysin of bacteriophage ΦCD27, made by site-directed mutagenesis of pET15b-cd27l; Side-by-side dimer interface mutant; also called CD27L (C238R); CD27L C239R (as printed in the SEC-RALS methods); source: E. coli BL21(DE3), purified as wild-type CD27L (Ni-NTA, SEC); not shown: His tag, N-terminal, kept
B3: CD27L endolysin, full length, wild type (enzyme, bacteriophage ΦCD27, UniProt B6SBV8 1-270, looked up)
chain: B2 chain with R238C
notes: CD27L endolysin of bacteriophage ΦCD27 (N-acetylmuramoyl-L-alanine amidase domain, linker, C-terminal domain); 270 residues by the construct name CD27L180-270; in pET15b with an N-terminal His tag and a thrombin site; Undergoes continuous autocleavage at M186, so samples also hold the catalytic domain and the C-terminal fragment; also called CD27L (wild-type); recombinant CD27L endolysin; source: …
B4: CD27L endolysin M186P mutant, full length (enzyme, bacteriophage ΦCD27, UniProt B6SBV8 1-270, looked up)
chain: B2 chain with M186P, R238C
notes: CD27L endolysin of bacteriophage ΦCD27, made by site-directed mutagenesis of pET15b-cd27l; Cleavage-site mutant; autocleavage abolished; tends to aggregate; also called CD27L M186P; source: E. coli BL21(DE3), purified as wild-type CD27L (Ni-NTA, SEC)

What was measured:
[1] = biological target: CTP1L endolysin, full length, wild type (bacteriophage that targets C. tyrobutyricum (phage not named)); assay: SEC-RALS/RI/UV (size exclusion chromatography with right-angle light scattering); S75 10/300 GL column, 20 mM HEPES pH 7.4, 500 mM NaCl, room temperature, 75 µL injected at 6.37, 7.15 and 6.17 mg/mL, 0.4 mL/min
[2] = biological target: the molecule itself; assay: crystal structure; crystals grown from full-length CD27L that held only the proteolytic C-terminal fragment; six copies in the asymmetric unit; 10-20% PEG 4000, 20 mM Tris pH 8.0; space group P212121
[3] = biological target: B3; assay: SEC-RALS/RI/UV (size exclusion chromatography with right-angle light scattering); S75 10/300 GL column, 20 mM HEPES pH 7.4, 500 mM NaCl, room temperature, 75 µL injected at 6.37, 7.15 and 6.17 mg/mL, 0.4 mL/min; details: both partners purified
[4] = biological target: the molecule itself; assay: SAXS; CD27L C238R, 10°C, 20 mM Tris, 500 mM NaCl pH 7.4, 1.0-8.5 mg/mL; volume fractions by OLIGOMER on merged data
[5] = biological target: the molecule itself; assay: SEC-RALS/RI/UV (size exclusion chromatography with right-angle light scattering); S75 10/300 GL column, 20 mM HEPES pH 7.4, 500 mM NaCl, room temperature, 75 µL injected at 6.37, 7.15 and 6.17 mg/mL, 0.4 mL/min

For “CTP1L endolysin, full length, wild type (enzyme)”, the stoichiometry N [1] was 2.

B1: binds [2]; binds [3].

B2 was tested, and the “stoichiometry N” value [4] was 2.

In the case of B3, the “stoichiometry N” value [5] is reported as 2.

For B4, the “stoichiometry N” value [5] was 2.

Reference: article PMC4110038, “The CD27L and CTP1L Endolysins Targeting Clostridia Contain a Built-in Trigger and Release Factor” (PLoS Pathogens, 2014)
